4 molecules from publication PMC3518760 (Nature, 2012) can be followed below.

Test [1] addresses mouse protocadherin-15 EC1+2 R113G (mouse) (UniProt Q99PJ1). Nature of the test: ITC. In general terms: In ITC the heat of successive injections is recorded.
The target in test [2] is T1, mouse protocadherin-15 EC1+2 (mouse, UniProt Q99PJ1-18 27-259). Nature of the test: ITC.
Test [3] concerns the target mouse protocadherin-15 EC1+2 I22A (mouse, UniProt Q99PJ1-18 27-259, I22A). Nature of the test: ITC.
The target of test [4] is T1, mouse protocadherin-15 EC1+2. Nature of the test: crystal structure.

As for “mouse cadherin-23 EC1+2 (from UniProt Q99PF4 24-228) (domain or fragment)”, in test [1], the dissociation constant Kd (in general, the equilibrium constant for the complex coming apart) is greater than 20 µM.

B1: mouse cadherin-23 EC1+2 (domain or fragment)
chain: MQVNRLPFFTNHFFDTYLLISEDTPVGSSVTQLLARDMDNDPLVFGVSGEEASRFFAVEPDTGVVWLRQPLDRETKSEFTVEFSVSDHQGVITRKVNIQVGDVNDNAPTFHNQPYSVRIPENTPVGTPIFIVNATDPDLGAGGSVLYSFQPPSPFFAIDSARGIVTVIQELDYEVTQAYQLTVNATDQDKTRPLSTLANLAIIITD
On to B1, for which, in test [2], the Kd is 2.9 µM; the dH was 7.08 kcal/mol; the stoichiometry N (commonly the number of molecules, sites or subunits per partner or assembly) came to 0.88. For the same molecule, the Kd in test [3] was greater than 100 µM.

B2: mouse cadherin-23 EC1+2 S47P (domain or fragment)
chain: MQVNRLPFFTNHFFDTYLLISEDTPVGSSVTQLLARDMDNDPLVFGVPGEEASRFFAVEPDTGVVWLRQPLDRETKSEFTVEFSVSDHQGVITRKVNIQVGDVNDNAPTFHNQPYSVRIPENTPVGTPIFIVNATDPDLGAGGSVLYSFQPPSPFFAIDSARGIVTVIQELDYEVTQAYQLTVNATDQDKTRPLSTLANLAIIITD
On to B2, for which the binding result in test [4] was “binds”.

B3: mouse cadherin-23 EC1+2 L145G (domain or fragment)
chain: MQVNRLPFFTNHFFDTYLLISEDTPVGSSVTQLLARDMDNDPLVFGVSGEEASRFFAVEPDTGVVWLRQPLDRETKSEFTVEFSVSDHQGVITRKVNIQVGDVNDNAPTFHNQPYSVRIPENTPVGTPIFIVNATDPDLGAGGSVGYSFQPPSPFFAIDSARGIVTVIQELDYEVTQAYQLTVNATDQDKTRPLSTLANLAIIITD
The molecule B3 yielded a Kd in test [2] greater than 30 µM.
